The RNAGym collection of RNA variant scans (doi:10.7554/elife.90254)

B1: OR4K15 (parent)
chain: GUUAACGGUCAUAGGCCAUGGAAACUAGGAGCACCAUUUCGCUGCCAGUGAAGAAAUGAACAAAGAAAAUCUGGGCCAGGCAGGCAUCAAAAGAAAUAGUCUUGCGCUCAACCAGAAAGUCUGUAAUCAUUUUAAGGGUA

Variants of: B1
Assay: self-cleavage, relative activity (ratio to wild type); higher = more cleavage; in vitro, sequencing; the parent is a self-cleaving ribozyme

Variant	self-cleavage
GAUAACGGUCAUAGGCCAUGGAAACUAGGAGCACCAUUUCGCUGCCAGUGAAGAAAUGAACAAAGAAAAUCUGGGCCAGGCAGGCAUCAAAAGAAAUAGUCUUGCGCUCAACCAGAUAGUCUGUAAUCAUUUUAAGGGUA	0.49
GUUAACGGUCAUAGGCCUUGGAAACUAGGAGCACCAUUUCGCUGCCAGUGAAGAAAUGAACAAAGAAAAUCUGGGCCAGGCAGGCAUCAAUAGAAAUAGUCUUGCGCUCAACCAGAAAGUCUGUAAUCAUUUUAAGGGUA	1.96
GUUAACGGUCAUAGGCCAUGGAAACUAGGAGCACCAUUUCGCUGCCAGUGAAGAAAUGAACAAAGAAAAUCUGGGCCAGGCAGGCAUCAAAAGAAAUAGUCCUGCGCUCAACCAGAAAGUCUGUAAUCAUUUUAAGGAUA	1.82
GUUAACGGUCAUAGGGCAUGGAAACUAGGAGCACCAUUUCGCUGCCAGUGAAGAAAUGAACAAAGAAUAUCUGGGCCAGGCAGGCAUCAAAAGAAAUAGUCUUGCGCUCAACCAGAAAGUCUGUAAUCAUUUUAAGGGUA	0.89
GUUAACGGUCAUAGGCCAUGGAAACUAGGAGCACCAUUUCGCUGCCAGUGAAGAAAUGAACAAAGAGAAUCUGGGCCAGGCAGGCAUCAAAAGAAAUAGUCUUGCGCUCAACCAGAAAGUCGGUAAUCAUUUUAAGGGUA	2.16
GUUAACGGUCAUAGGCCAUGGAAACUAGGAGCACCAUUUCGCUGCCAGUGAAGAAAUGAACAAAGAAAAUCUGGGCCAGGCAGGCGUCCAAAGAAAUAGUCUUGCGCUCAACCAGAAAGUCUGUAAUCAUUUUAAGGGUA	0.67
GUUAACGGUCGUAGGCCAUGGAAACUAGGAGCACCAUUUCGCUGCCAGUGAAGAAAUGAACAAAGAAAAUCUGGGCCAGGCAGGCAUCAAAAGAAAUAGUCCUGCGCUCAACCAGAAAGUCUGUAAUCAUUUUAAGGGUA	1.41
GUUAACGGUCAUAGGCCAUGGAGACUAGGAGCACCAUUUCGCUGCCAGUGAAGAAAUGAACAAAGAAAAUCUGGGCCAGGCAGGCAUCAAAAGAAAUAGUCUUGCGCUCAACCAGAAUGUCUGUAAUCAUUUUAAGGGUA	0.78
GUUAAUGGUCAUAGGCCAUGGAAACAAGGAGCACCAUUUCGCUGCCAGUGAAGAAAUGAACAAAGAAAAUCUGGGCCAGGCAGGCAUCAAAAGAAAUAGUCUUGCGCUCAACCAGAAAGUCUGUAAUCAUUUUAAGGGUA	0.53
GUUAACGGUCGUAGGCCAUGGAAACUAGGAGCACCAUUUCGCUGCCAGUGAAGAAAUGAACAAAGAAAAUCUGGGCCAGGCAGGCAUCAAAAGAAAUAGUCUUGCGGUCAACCAGAAAGUCUGUAAUCAUUUUAAGGGUA	0.05
GUUAACGGUCAUAGGCCAUGGAAACUAGGGGCACCAUUUCGCUGCCAGUGAAGAAAUGAACAAAGAAAAUCUGGGCCAGGCAGGCACCAAAAGAAAUAGUCUUGCGCUCAACCAGAAAGUCUGUAAUCAUUUUAAGGGUA	1.39
GUUAACGGUCAUAGGCCAUGGAAACUAGGAGCACCUUUUCGCUGCCAGUGAAGAAAUGAACAAAGAAAAUCUGGGCCAGGCAGGCAUCAGAAGAAAUAGUCUUGCGCUCAACCAGAAAGUCUGUAAUCAUUUUAAGGGUA	1.74
GUUAACGGUCAUAGGCCAUGGAAACUAGGAGCACCAUUUCGCUGCCAGUGAAGAAAUGAGCAAAGAAAAUCUGGGCCAGGCUGGCAUCAAAAGAAAUAGUCUUGCGCUCAACCAGAAAGUCUGUAAUCAUUUUAAGGGUA	0.12
GUUAACGGUCAUAGGCCAUGGAAACAAGGAGCACCAUUUCGCUGCCAGUGAAGAAAUGAACAAAGAAAAUCUGGGCCAGGCAGGCAUCAAAAGAAAUAGUCUUGCGCUCAACCAGAAAGUCUGUAAUCACUUUAAGGGUA	0.54
GUUAACGGUCAUGGGCCAUGGAUACUAGGAGCACCAUUUCGCUGCCAGUGAAGAAAUGAACAAAGAAAAUCUGGGCCAGGCAGGCAUCAAAAGAAAUAGUCUUGCGCUCAACCAGAAAGUCUGUAAUCAUUUUAAGGGUA	1.32
GUUAACGGUCAUAGGCCAUGGAAACUAGGAGCACCACUUCGCUGCCAGUGAAGAAAUGAACAAAGAAAAUCUGGGCCAGGCAGGCAUCAAAAGUAAUAGUCUUGCGCUCAACCAGAAAGUCUGUAAUCAUUUUAAGGGUA	1.67
GUUAACGGUCAUAGGCCAUGGAAACUAGGAGCACCAUUUCGCUGCCAGUGAAGAAAUGAACAAAGCAAAUCUGGGCCGGGCAGGCAUCAAAAGAAAUAGUCUUGCGCUCAACCAGAAAGUCUGUAAUCAUUUUAAGGGUA	0.32
GUUAACGGUCAUAGGCCAUGGAAACUAGGAGCACCAUUUCGCUGCCAGUGAAGAAAUGAACAAAGAAAAUCUGGGCCAGGCAGGCAUCAAAAGAAAUAGUCUUGCGCUCAACCAGAUAGUCUGUAAUCAUUUUAGGGGUA	0.7
GUUAACGGUCAUAGGCCAUGGAAACUAGGAGCACCAUUUCGCUGCUAGUGAAGAAAUGGACAAAGAAAAUCUGGGCCAGGCAGGCAUCAAAAGAAAUAGUCUUGCGCUCAACCAGAAAGUCUGUAAUCAUUUUAAGGGUA	1.81
GUUAACGGUCAUAGGCCAUGGAAACUAGGGACACCAUUUCGCUGCCAGUGAAGAAAUGAACAAAGAAAAUCUGGGCCAGGCAGGCAUCAAAAGAAAUAGUCUUGCGCUCAACCAGAAAGUCUGUAAUCAUUUUAAGGGUA	1.61
